# Data reported in patent publication US20220306758A1 (Regeneron, published 2022).
# Columns and labels:
# [1] = target: T1, cynomolgus CD3 on primary cynomolgus CD8+ T cells (cynomolgus, UniProt Q95LI5 22-198; Q95LI8 22-171; Q95LI7 23-181); experiment: flow cytometry on primary cynomolgus CD8+ T cells, n=1
# T1 construct: whole, on cells; Endogenous CD3 complex on primary cells; also called Mf (Cyno) CD8+ T cells
# Experimental: Flow cytometric analysis was utilized to determine binding of BCMA×CD3 bispecific antibodies to human and cynomolgus CD3 (Jurkat cells, mfCD3 engineered Jurkat cells, primary human CD8+ and cynomolgus CD8+ T cells). Briefly, 1e05 cells/well were incubated in the presence of FACS wash with block (PBS+1% filtered FBS+5% mouse serum) with a serial dilution of BCMA×CD3 and control antibodies for 30 minutes on ice. After incubation, the cells were washed twice with cold FACS wash (PBS+1% filtered FBS) and bound antibody was detected by incubating with Alexa647-conjugated anti-human secondary antibody on ice for an additional 30 minutes. Wells containing no antibody or secondary only were used as a control. For the detection of monkey and human T cells, a cocktail of human and cynomolgus cross-reactive antibodies to CD4, CD8 and CD16 was added to the anti-human secondary. After incubation, cells were washed, re-suspended in 200 μL cold PBS containing 1% filtered FBS and analyzed by flow cytometry on a BD FACS Canto II. Cells were gated by FSC-H by FSC-A to select singlet events, followed by side and forward scatters to select for live events. For monkey T cells, additional gating on CD8+/CD16− cells was performed.
# EC50 values for FACS binding were calculated using 4-parameter non-linear regression analysis in Prism software.
# [2] = target: T2, human BCMA on cells (endogenous, on multiple myeloma and lymphoma cell lines) (human, UniProt Q02223 1-184); experiment: cell-based or functional assay
# T2 sequence: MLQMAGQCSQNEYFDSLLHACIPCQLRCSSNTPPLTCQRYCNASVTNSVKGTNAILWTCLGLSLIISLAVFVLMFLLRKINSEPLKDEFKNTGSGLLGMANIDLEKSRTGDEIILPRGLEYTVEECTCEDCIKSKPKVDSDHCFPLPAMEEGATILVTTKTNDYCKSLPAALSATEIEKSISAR
# [3] = target: T2, human BCMA on cells (endogenous, on …); experiment: flow cytometry on RPMI-8226 cells, Alexa647 conjugate
# Experimental: (§1) Cells were then washed and fixed for 25 mins at 4° C. using a 50% solution of BD Cytofix (BD, Cat #554655) diluted in PBS. […] After gating for live cells and single cells, the mean fluorescent intensity (MFI) was determined, and MFI values were plotted in Graphpad Prism using a four-parameter logistic equation over a 10-point response curve to calculate EC₅₀s. The zero condition for each dose-response curve is also included in the analysis as a continuation of the two-fold serial dilution and is represented as the lowest dose. The signal to noise (S/N) is determined by taking the ratio of the mAb25442D-A647 MFI to the Isotype-A647 MFI. (Table 13). The mAb25442D-A647 S/N ranged from 2 to 470 and the EC₅₀ values ranged from 27 to 83 nM. No detectable binding was observed on HEK293 cells.
# [4] = target: T2, human BCMA on cells (endogenous, on …); experiment: flow cytometry on OPM-2 cells, Alexa647 conjugate
# Experimental: as §1
# [5] = target: T2, human BCMA on cells (endogenous, on …); experiment: flow cytometry on NCI-H929 cells, Alexa647 conjugate
# Experimental: as §1
# T1 sequence (Q95LI5 22-198, chain 1 of 3): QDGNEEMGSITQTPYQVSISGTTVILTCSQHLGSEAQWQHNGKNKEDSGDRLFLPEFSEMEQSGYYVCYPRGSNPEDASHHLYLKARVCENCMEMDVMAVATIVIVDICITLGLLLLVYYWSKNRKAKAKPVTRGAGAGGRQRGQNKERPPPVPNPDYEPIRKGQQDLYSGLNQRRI
# T1 sequence (Q95LI8 22-171, chain 2 of 3): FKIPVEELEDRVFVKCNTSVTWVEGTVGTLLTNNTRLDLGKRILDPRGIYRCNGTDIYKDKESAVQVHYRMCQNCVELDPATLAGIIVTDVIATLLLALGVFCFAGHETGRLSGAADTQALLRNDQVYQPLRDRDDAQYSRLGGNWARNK
# T1 sequence (Q95LI7 23-181, chain 3 of 3): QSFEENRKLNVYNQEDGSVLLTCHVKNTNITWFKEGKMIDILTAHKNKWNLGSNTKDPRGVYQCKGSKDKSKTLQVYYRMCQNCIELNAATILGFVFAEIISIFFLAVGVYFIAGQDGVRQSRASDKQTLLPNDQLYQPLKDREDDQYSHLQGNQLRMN
Binder,EC50 [1] [nM],"MFI fold change over cells incubated in media only, NCI-H929, 18 h with 67 nM antibody, then stained with the same antibody [2] [fold]","MFI fold change over cells incubated in media only, NCI-H929, 18 h with 667 nM antibody, then stained with the same antibody [2] [fold]",EC50 [3] [nM],EC50 [4] [nM],EC50 [5] [nM]
"REGN5458 (bsAb25441D), anti-BCMA x anti-CD3 bispecific antibody (bispecific antibody, V domains shown, Two different heavy chains paired with a common light chain; human Fc (captured by anti-human Fc in SPR); also called bsAb25441D9; mAb25441D) VH 1: EVQLVESGGGLVQPGGSLRLSCAASGFTFSNFWMTWVRQAPGKGLEWVANMNQDGSEKYYVDSVKGRFTISRDNAKSSLYLQMNSLRAEDTAVYYCARDREYCISTSCYDDFDYWGQGTLVTVSS VH 2: EVQLVESGGGLVQPGRSLRLSCAASGFTFDDYSMHWVRQAPGKGLEWVSGISWNSGSKGYADSVKGRFTISRDNAKNSLYLQMNSLRAEDTALYYCAKYGSGYGKFYHYGLDVWGQGTTVTVSS VL: not shown",46.6,2,3,,,
"REGN5459 (bsAb25442D), anti-BCMA x anti-CD3 bispecific antibody (bispecific antibody, V domains shown, also called mAb25442D; mAb25442D-A647) VH 1: EVQLVESGGGLVQPGGSLRLSCAASGFTFSNFWMTWVRQAPGKGLEWVANMNQDGSEKYYVDSVKGRFTISRDNAKSSLYLQMNSLRAEDTAVYYCARDREYCISTSCYDDFDYWGQGTLVTVSS VH 2: EVQLVESGGGLVQPGRSLRLSCAASGFTFDDYSMHWVRQAPGKGLEWVSGISWNSGSIGYADSVKGRFTISRDNAKNSLYLQMNSLRAEDTALYYCAKYGSGYGKFYYYGMDVWGQGTTVTVSS VL: not shown",,,,27,57,79
